Data taken from US20150037829A1 (MIT, published 2015).

Target: the molecule itself
Assay: gel filtration chromatography, self-association
Experimental: APX, fluorescent protein, or miniSOG preparations were diluted to the desired concentrations using chilled (4° C.) PBS and then allowed to incubate at room temperature for 30 min to overnight. Samples ([…]) were run on a Waters HPLC system over a Superdex 75 10/300 column (GE Healthcare) that had been pre-equilibrated in PBS, pH 7.4. Samples were run isocratically in PBS at a flow rate of 0.5 mL/min. Elution of APX was monitored at 280 nm and 405 nm (heme absorbance). Empower software (Waters) was used for analysis of elution profiles. Apparent MWs were determined against low molecular weight standards (GE). […] This estimation was applied for all proteins in FIG. 4d except wt APX, which was predominantly dimeric at 0.25 μM. The apparent MW of the monomer for wt APX was assumed to be equal to the apparent MW of mAPX at 0.25 μM.

B1: wild-type pea cytosolic ascorbate peroxidase (APX), N-terminally His6-tagged (enzyme)
chain: RGKSYPTVSPDYQKAIEKAKRKLRGFIAEKKCAPLILRLAWHSAGTFDSKTKTGGPFGTIKHQAELAHGANNGLDIAVRLLEPIKEQFPIVSYADFYQLAGVVAVEITGGPEVPFHPGREDKPEPPPEGRLPDATKGSDHLRDVFGKAMGLSDQDIVALSGGHTIGAAHKERSGFEGPWTSNPLIFDNSYFTELLTGEKDGLLQLPSDKALLTDSVFRPLVEKYAADEDVFFADYAEAHLKLSELGFAEA
modifications: heme cofactor (non-covalent)
notes: the entries describe its self-association (homodimer) in gel filtration; also called wt APX; wtAPX; not shown: N-terminal His6-tag
Q: Does B1 bind?
A: binds
